Test results as given in IntAct's records for PubMed 22072710.

B1: Bone marrow stromal antigen 2 (Homo sapiens), Q10589 (parent)
chain: MASTSYDYCRVPMEDGDKRCKLLLGIGILVLLIIVILGVPLIIFTIKANSEACRDGLRAVMECRNVTHLLQQELTEAQKGFQDVEAQAATCNHTVMALMASLDAEKAQGQKKVEELEGEITTLNHKLQDASAEVERLRRENQVLSVRIADKKYYPSSQDSSSAAAPQLLIVLLGLSALLQ
partner: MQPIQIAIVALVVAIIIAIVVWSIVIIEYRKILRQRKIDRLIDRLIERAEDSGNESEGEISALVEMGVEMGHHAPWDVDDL
B2: Protein Vpu (Human immunodeficiency virus type 1 group M subtype B (isolate BH10) (HIV-1)), P69699 (parent)
chain: B1 partner

Variants of: B1
Conditions: with vpu_hv1b1 vpu, P69699

Variant | effect of a mutation on the interaction
MASTSYDYCRVPMEDGDKRCKLLLGIGILVLLIAVILGVPLIIFTIKANSEACRDGLRAVMECRNVTHLLQQELTEAQKGFQDVEAQAATCNHTVMALMASLDAEKAQGQKKVEELEGEITTLNHKLQDASAEVERLRRENQVLSVRIADKKYYPSSQDSSSAAAPQLLIVLLGLSALLQ | disrupting interaction
MASTSYDYCRVPMEDGDKRCKLLLGIGILVLLIIVILGVPAIIFTIKANSEACRDGLRAVMECRNVTHLLQQELTEAQKGFQDVEAQAATCNHTVMALMASLDAEKAQGQKKVEELEGEITTLNHKLQDASAEVERLRRENQVLSVRIADKKYYPSSQDSSSAAAPQLLIVLLGLSALLQ | disrupting interaction
MASTSYDYCRVPMEDGDKRCKLLIGIGILVLLIIVILGVPLIIFIIKANSEACRDGLRAVMECRNVTHLLQQELTEAQKGFQDVEAQAATCNHTVMALMASLDAEKAQGQKKVEELEGEITTLNHKLQDASAEVERLRRENQVLSVRIADKKYYPSSQDSSSAAAPQLLIVLLGLSALLQ | disrupting interaction strength
MASTSYDYCRVPMEDGDKRCKLLLGAGILVLLIIVILGVPLIIFTIKANSEACRDGLRAVMECRNVTHLLQQELTEAQKGFQDVEAQAATCNHTVMALMASLDAEKAQGQKKVEELEGEITTLNHKLQDASAEVERLRRENQVLSVRIADKKYYPSSQDSSSAAAPQLLIVLLGLSALLQ | decreasing interaction
MASTSYDYCRVPMEDGDKRCKLLLGIGILVLLIIVIAGVPLIIFTIKANSEACRDGLRAVMECRNVTHLLQQELTEAQKGFQDVEAQAATCNHTVMALMASLDAEKAQGQKKVEELEGEITTLNHKLQDASAEVERLRRENQVLSVRIADKKYYPSSQDSSSAAAPQLLIVLLGLSALLQ | disrupting interaction

Variants of: B2
Conditions: with bst2_human BST2, Q10589

Variant | effect of a mutation on the interaction
A10F;A14F;A18F | decreasing interaction
W22A | decreasing interaction
A14F | decreasing interaction

Variants of: B2
Conditions: with bst2_human BST2, Q10589
Remark: another data set of the same source

Variant | effect of a mutation on the interaction
A10F;A14F;A18F | disrupting interaction
